The numbers were not newly measured in PMC3379994, “Comprehensive Analysis of Interactions between the Src-Associated Protein in Mitosis of 68 kDa and the Human Src-Homology 3 Proteome” (PLoS ONE, 2012), which cites them from elsewhere.

pKd: −log10 of the molar value.

For the data set, the target named is Nef (Human immunodeficiency virus 1) (UniProt P04324). The data set is described as follows: SPR. (In general: In SPR one partner is held on a chip, and binding of the other changes the refractive index at the surface.)

Chain of Hck SH3 (P08631 75-141): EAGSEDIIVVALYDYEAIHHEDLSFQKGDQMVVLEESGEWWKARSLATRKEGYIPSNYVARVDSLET

One may read the pKd as −log10 of the Kd, conventionally taken in molar units. Regarding Hck SH3 (from UniProt P08631), the negative logarithm of the Kd (pKd) is 6.60.
